From publication PMC2173498

Assays:
Test in all cases: SEC
[1] = target: IBB-nucleoplasmin (UniProt P52292)
[2] = target: M9-βgal (UniProt P09651)
[3] = target: Thyroglobulin-NLS
[4] = target: IBB-βgal (UniProt P52292)

WT importin β, sequence (Q14974 whole entry): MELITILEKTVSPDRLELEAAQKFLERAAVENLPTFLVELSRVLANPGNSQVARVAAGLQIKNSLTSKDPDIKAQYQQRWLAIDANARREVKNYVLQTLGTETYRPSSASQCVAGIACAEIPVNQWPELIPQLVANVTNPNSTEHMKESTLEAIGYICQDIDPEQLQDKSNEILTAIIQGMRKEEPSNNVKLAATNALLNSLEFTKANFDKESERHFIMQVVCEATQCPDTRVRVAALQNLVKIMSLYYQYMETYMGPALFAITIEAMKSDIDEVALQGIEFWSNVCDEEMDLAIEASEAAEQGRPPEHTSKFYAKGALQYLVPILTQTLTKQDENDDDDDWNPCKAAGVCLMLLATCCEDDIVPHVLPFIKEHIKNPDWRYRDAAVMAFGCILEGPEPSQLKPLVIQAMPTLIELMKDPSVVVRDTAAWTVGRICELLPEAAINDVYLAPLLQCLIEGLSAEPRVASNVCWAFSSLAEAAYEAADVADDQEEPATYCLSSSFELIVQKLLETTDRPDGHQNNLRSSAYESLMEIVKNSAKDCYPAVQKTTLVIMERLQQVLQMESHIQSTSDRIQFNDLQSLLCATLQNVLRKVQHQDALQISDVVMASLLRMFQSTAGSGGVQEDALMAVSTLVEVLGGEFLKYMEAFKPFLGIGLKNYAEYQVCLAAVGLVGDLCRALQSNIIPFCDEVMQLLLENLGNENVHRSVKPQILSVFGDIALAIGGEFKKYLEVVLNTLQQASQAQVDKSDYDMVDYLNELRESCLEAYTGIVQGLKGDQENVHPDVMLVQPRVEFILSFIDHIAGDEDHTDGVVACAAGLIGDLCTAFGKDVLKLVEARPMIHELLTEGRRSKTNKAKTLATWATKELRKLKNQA
WT transportin, sequence (Q92973 whole entry): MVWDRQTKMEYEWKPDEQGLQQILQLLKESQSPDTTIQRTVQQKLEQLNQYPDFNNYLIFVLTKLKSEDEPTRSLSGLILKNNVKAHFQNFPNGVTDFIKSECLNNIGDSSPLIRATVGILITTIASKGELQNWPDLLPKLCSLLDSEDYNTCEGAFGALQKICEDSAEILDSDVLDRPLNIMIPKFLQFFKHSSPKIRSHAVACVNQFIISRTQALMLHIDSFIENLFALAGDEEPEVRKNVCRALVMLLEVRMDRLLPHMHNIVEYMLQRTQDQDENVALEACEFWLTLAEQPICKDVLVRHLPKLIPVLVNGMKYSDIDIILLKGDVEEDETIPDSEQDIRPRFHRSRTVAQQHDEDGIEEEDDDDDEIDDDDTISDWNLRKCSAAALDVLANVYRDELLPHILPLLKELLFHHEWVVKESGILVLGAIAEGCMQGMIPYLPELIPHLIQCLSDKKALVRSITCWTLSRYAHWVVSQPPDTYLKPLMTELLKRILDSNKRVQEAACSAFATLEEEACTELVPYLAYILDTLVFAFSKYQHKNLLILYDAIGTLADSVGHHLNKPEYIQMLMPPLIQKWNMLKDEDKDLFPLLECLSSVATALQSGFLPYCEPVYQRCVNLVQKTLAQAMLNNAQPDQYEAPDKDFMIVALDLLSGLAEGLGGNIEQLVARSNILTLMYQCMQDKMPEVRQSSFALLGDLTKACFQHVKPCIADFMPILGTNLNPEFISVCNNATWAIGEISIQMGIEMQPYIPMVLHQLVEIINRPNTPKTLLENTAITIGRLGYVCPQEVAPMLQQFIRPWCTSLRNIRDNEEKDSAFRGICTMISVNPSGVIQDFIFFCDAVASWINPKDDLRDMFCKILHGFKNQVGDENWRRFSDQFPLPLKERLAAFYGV

“IBB-nucleoplasmin (from UniProt P52292 1-65; P05221 1-149)” was tested, and the stoichiometry N [1] was 10.
For M9-βgal (from UniProt P09651-2 255-320), the stoichiometry N [2] was 4.
For Thyroglobulin-NLS, the stoichiometry N [3] was 2.
“WT importin β (from UniProt Q14974 1-876) (natural protein)” was tested, and the stoichiometry N (receptors per cargo) [4] was 4 and the stoichiometry N (receptors per cargo) [1] was 5.
Substance “WT transportin (from UniProt Q92973 1-898) (natural protein)” has a stoichiometry N (receptors per cargo) [2] of 4.
